Reference: patent US20250361295A1 (ANTENGENE BIOLOGICS, published 2025)

What was measured:
[1] = target: T1, human LILRB4 (human, UniProt Q8NHJ6 22-448); experiment: FACS, 293F-hLILRB4 cells
T1 construct: whole, on cells; also called hLILRB4
Description: (§1) The protocol for FACS analysis is described as follows: [0438] (a) Cells were harvested by centrifugation at 300 g for 3 mins. […] (b) The cells were washed for 2 times with FACS buffer by centrifuging at 300 g for 3 mins and the supernatant was discarded. [0440] (c) Cell were resuspended and seeded into assay plate (2×10⁵ cells/well) in 50 μl FACS buffer. […] Cells were incubated with antibodies at 4° C. for 1 hour. […] (d) Step (b) was repeated and the cells were resuspended with 100 μl diluted 2nd antibody, incubated at 4° C. for 1 hour in the dark. [0442] (e) Step (b) was repeated and the cells were resuspended with 100 μl FACS buffer. The cells were kept in dark for FACS analysis.

[2] = target: T2, human LILRB3 (human, UniProt O75022 24-631); experiment: FACS, 293F-hLILRB3 cells
T2 construct: whole, on cells; also called hLILRB3
Description: as §1

[3] = target: T1, human LILRB4; experiment: cell-based or functional assay
[4] = target: T1, human LILRB4; experiment: cell-based or functional assay; remark: listed apart in the source
[5] = target: T1, human LILRB4; experiment: cell-based or functional assay; remark: listed apart in the source
[6] = target: T3, human LILRA2 (human, UniProt Q8N149 24-483); experiment: FACS, 293F-hLILRA2 cells
T3 construct: whole, on cells; also called hLILRA2

[7] = target: T4, human LILRA5 (human, UniProt A6NI73 42-299); experiment: FACS, 293F-hLILRA5 cells
T4 construct: whole, on cells; also called hLILRA5

[8] = target: T1, human LILRB4; experiment: FACS, 293F-hLILRB4 cells; remark: listed apart in the source
Description: The subcloning plates were screened by protein or cell-based ELISA, and the subclones with good binding ability were expanded to 24-wells for confirmation tests. The specificity and cross-reactivity of these subclones were confirmed with FACS analysis. […] Fluorescent dye-conjugated secondary antibody was used to detect the binding of the primary antibody with the cells. Median fluorescence intensity (MFI) was measured by FACS analysis. […]

[9] = target: T5, human LILRA4 (human, UniProt P59901 24-499); experiment: FACS, 293F-hLILRA4 cells
T5 construct: whole, on cells; also called hLILRA4

[10] = target: T6, human LILRA1 (human, UniProt O75019 17-489); experiment: FACS, 293F-hLILRA1 cells
T6 construct: whole, on cells; also called hLILRA1

[11] = target: T7, human LILRA3 (human, UniProt Q8N6C8 24-439); experiment: FACS, 293F-hLILRA3 cells
T7 construct: whole, on cells; also called hLILRA3

[12] = target: T8, human LILRB5 (human, UniProt O75023 24-590); experiment: FACS, 293F-hLILRB5 cells
T8 construct: whole, on cells; also called hLILRB5

[13] = target: T9, human LILRB1 (human, UniProt Q8NHL6 24-650); experiment: FACS, 293F-hLILRB1 cells
T9 construct: whole, on cells; also called hLILRB1

[14] = target: T10, human LILRB2 (human, UniProt Q8N423 22-597); experiment: FACS, 293F-hLILRB2 cells
T10 construct: whole, on cells; also called hLILRB2

[15] = target: T2, human LILRB3; experiment: FACS, 293F-hLILRB3 cells; remark: listed apart in the source

T9 sequence (Q8NHL6 24-650): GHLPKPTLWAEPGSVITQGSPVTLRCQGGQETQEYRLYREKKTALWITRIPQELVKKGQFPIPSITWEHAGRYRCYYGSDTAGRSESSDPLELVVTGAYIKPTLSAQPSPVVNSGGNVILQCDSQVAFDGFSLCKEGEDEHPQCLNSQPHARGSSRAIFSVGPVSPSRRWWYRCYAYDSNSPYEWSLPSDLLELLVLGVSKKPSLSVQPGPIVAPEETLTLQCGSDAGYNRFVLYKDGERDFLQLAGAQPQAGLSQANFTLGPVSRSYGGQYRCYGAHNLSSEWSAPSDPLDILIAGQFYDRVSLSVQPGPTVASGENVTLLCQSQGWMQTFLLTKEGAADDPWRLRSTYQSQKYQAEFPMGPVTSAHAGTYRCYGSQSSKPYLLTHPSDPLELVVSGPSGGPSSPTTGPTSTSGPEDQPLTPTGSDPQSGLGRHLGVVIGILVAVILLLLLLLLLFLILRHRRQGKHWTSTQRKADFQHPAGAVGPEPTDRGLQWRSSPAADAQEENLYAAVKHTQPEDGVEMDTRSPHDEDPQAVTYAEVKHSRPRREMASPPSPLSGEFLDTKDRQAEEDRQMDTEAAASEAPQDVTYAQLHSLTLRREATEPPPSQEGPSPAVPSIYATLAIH
T3 sequence (Q8N149 24-483): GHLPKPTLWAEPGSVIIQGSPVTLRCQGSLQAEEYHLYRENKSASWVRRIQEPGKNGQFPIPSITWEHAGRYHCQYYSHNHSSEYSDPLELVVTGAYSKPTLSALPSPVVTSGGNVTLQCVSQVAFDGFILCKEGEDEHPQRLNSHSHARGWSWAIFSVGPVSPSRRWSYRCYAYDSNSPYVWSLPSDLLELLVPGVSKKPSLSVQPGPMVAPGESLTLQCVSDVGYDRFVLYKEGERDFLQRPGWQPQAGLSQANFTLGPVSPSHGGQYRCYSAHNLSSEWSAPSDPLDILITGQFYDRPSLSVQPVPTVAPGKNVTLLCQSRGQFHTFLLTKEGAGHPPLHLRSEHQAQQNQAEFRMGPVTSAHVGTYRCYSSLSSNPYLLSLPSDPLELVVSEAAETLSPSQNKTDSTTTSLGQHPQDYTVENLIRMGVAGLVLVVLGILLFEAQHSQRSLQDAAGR
T5 sequence (P59901 24-499): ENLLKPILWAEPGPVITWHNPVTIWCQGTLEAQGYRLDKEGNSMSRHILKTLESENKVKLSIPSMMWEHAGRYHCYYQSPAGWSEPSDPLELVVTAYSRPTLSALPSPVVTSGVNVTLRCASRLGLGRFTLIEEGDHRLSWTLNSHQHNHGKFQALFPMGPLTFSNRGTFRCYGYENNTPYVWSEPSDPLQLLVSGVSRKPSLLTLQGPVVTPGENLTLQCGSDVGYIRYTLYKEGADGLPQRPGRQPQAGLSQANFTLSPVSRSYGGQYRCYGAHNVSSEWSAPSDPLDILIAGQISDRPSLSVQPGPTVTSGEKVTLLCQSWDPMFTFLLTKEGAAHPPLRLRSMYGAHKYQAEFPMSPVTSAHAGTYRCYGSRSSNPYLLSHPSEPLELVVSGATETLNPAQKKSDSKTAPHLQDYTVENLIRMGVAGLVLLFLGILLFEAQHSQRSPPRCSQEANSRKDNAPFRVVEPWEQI
T2 sequence (O75022 24-631): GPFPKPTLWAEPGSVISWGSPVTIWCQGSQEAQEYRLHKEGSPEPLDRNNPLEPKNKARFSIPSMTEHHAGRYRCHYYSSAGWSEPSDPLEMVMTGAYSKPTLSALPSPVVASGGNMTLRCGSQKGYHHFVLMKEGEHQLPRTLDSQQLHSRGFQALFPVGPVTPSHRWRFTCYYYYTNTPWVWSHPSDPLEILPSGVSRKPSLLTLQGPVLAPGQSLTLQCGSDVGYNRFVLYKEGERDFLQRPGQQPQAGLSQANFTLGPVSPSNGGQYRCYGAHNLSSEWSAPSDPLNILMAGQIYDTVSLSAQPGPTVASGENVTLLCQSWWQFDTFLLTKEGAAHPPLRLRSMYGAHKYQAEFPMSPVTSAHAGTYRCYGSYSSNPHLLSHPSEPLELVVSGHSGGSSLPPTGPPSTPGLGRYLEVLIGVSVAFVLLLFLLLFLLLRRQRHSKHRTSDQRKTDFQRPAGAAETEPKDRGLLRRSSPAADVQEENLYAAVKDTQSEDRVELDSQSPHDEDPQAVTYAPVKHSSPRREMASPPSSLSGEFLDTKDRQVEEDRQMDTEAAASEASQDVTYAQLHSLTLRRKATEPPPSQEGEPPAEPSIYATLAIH
T4 sequence (A6NI73 42-299): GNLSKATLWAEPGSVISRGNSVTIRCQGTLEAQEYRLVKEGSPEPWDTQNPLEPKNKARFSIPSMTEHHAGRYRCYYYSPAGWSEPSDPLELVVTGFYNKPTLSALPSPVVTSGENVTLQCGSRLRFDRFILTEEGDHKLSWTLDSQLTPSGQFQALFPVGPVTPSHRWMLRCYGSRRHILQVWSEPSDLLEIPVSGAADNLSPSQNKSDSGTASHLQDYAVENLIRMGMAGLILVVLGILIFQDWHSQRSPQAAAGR
T8 sequence (O75023 24-590): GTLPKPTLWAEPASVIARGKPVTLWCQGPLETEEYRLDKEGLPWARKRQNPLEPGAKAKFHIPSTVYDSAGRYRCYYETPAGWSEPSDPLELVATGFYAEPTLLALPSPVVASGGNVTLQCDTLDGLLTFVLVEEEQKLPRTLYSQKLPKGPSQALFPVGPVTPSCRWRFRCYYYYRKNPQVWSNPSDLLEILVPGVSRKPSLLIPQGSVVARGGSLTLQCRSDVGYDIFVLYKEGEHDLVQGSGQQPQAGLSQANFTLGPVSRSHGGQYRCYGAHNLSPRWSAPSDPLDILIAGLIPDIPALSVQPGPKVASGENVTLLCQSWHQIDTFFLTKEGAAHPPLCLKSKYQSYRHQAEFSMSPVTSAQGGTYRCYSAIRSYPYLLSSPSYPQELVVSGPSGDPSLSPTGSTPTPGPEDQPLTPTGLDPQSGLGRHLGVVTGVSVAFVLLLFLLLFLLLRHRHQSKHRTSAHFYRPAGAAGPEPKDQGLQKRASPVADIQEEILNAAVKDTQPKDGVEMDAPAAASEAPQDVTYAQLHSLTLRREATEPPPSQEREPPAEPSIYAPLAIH
T10 sequence (Q8N423 22-597): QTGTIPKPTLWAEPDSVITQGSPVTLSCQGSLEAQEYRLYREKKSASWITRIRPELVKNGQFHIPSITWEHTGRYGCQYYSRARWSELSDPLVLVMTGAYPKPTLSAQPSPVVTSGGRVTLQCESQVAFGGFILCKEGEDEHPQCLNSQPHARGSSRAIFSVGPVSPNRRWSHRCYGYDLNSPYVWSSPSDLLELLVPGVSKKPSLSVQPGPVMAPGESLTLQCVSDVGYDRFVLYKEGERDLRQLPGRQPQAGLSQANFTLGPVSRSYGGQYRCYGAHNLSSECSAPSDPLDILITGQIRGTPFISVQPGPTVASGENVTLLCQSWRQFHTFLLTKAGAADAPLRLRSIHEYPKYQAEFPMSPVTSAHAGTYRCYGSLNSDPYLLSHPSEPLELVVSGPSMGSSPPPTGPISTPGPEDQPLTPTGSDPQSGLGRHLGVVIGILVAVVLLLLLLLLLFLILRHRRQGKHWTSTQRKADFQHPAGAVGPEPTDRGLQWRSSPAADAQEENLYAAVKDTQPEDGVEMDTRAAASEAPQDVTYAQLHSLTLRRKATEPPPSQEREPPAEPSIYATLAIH
T7 sequence (Q8N6C8 24-439): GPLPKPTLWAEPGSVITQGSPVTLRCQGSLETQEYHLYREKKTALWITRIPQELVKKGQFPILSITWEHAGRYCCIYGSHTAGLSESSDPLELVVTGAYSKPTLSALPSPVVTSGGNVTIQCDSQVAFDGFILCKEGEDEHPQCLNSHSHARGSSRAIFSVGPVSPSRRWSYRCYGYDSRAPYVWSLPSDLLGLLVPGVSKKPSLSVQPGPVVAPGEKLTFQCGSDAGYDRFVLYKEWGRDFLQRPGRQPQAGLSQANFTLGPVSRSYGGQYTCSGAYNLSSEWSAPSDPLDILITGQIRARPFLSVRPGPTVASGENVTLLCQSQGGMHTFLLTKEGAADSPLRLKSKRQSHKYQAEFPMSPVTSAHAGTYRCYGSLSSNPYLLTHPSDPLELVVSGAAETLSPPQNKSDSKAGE
T6 sequence (O75019 17-489): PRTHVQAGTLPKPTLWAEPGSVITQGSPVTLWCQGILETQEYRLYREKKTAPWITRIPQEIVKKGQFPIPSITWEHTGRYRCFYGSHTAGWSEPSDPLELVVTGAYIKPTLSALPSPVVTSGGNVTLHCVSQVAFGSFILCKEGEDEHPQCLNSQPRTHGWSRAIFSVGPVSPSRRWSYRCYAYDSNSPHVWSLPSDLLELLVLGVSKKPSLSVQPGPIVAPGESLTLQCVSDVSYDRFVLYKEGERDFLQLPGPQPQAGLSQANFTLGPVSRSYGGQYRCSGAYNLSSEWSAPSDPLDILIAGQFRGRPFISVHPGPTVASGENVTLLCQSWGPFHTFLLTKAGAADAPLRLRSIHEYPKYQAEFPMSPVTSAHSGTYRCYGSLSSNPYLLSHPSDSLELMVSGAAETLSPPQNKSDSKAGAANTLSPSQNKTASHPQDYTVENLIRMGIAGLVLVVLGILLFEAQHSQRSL

| Binder | EC50 [1] [nM] | Max MFI [1] [MFI] | binding result [2] | FcγR stimulation (TNF-α, pg/mL) [3] [pg/mL] | Fold change (Compared to isotype) [3] [fold] | ADCP (%) at 133.3 nM, macrophages and MV-4-11 cells [4] [%] | Max cell cytotoxicity (%), ADCC on THP-1 cells [5] [%] | MFI [6] [MFI] | MFI [7] [MFI] | MFI [8] [MFI] | MFI [9] [MFI] | MFI [10] [MFI] | MFI [11] [MFI] | MFI [12] [MFI] | MFI [13] [MFI] | MFI [14] [MFI] | EC50 (nM), ADCC on THP-1 cells [5] [nM] | MFI [15] [MFI] |
| --- | --- | --- | --- | --- | --- | --- | --- | --- | --- | --- | --- | --- | --- | --- | --- | --- | --- | --- |
| ch48-E11-H7-B5 (antibody, V domains shown) VH: EVQLVESGGGLVKPGGSLKLSCAASGFTFSSYAMSWVRQTPEKRLEWVASITIGDDTYYPDSVKGRFTISRDHAKNILYLQVSSLRSEDTAMYSCARGVNSYGSSYRYFDVWGAGTTVTVSS VL: DIVMTQSHKFMSTSVGDRVSITCKASQDVSTAVAWYQQKPGQSPKLLIYWASTRHTGVPDRFTGSGSGTDYTLTISSVQAEDLALYYCQQHYSIPFTFGAGTKLEK | 4.05 | 53700 | no binding (tested: up to 66.67 nM) | 1310 | 41.4 | 18 | – | – | – | – | – | – | – | – | – | – | – | – |
| ch8-B3-F6-H8 (antibody, V domains shown) VH: EVKVIESGGGLVQPGGSLKLSCAASGFDFSRYWMSWVRQAPGKGLEWIGEINPDSSAINYTPSLKDKFIISRDNAKNTLYLQMSKVRSEDTALYYCATSMTMDYWGQGTSVTVSS VL: DIVMTQSPSSMYASLGERVTITCKASQDIKSYLSWYQQKPWKSPKTLIYYATSLADGVPSRFSGSGSGQDYSLTISSLESDDTATYYCLQHGESPYTFGGGTKLEK | 2.05 | 48500 | – | 391 | 12.4 | 4.59 | 7.1 | – | – | – | – | – | – | – | – | – | – | – |
| 8-B3-F6-H8 (antibody, V domains shown, mouse monoclonal hybridoma antibody) VH: EVKVIESGGGLVQPGGSLKLSCAASGFDFSRYWMSWVRQAPGKGLEWIGEINPDSSAINYTPSLKDKFIISRDNAKNTLYLQMSKVRSEDTALYYCATSMTMDYWGQGTSVTVSS VL: DIVMTQSPSSMYASLGERVTITCKASQDIKSYLSWYQQKPWKSPKTLIYYATSLADGVPSRFSGSGSGQDYSLTISSLESDDTATYYCLQHGESPYTFGGGTKLEK | – | – | – | – | – | – | – | 19.6 | 24.5 | 1060 | 19.5 | 22.2 | 20 | 16.8 | 19.4 | 29.5 | – | – |
| ch43-D12-F3-G11 (antibody, V domains shown) VH: EVQVVESGPGLVAPSQSLSITCTVSGFSLTSYGVSWVRQPPGKGLEWLGVIWADGSTNYHSALLSRLSISKDNSKSQVFLKLNSLQTDDTATYYCAKGHWDGFAYWGQGTLVAVSA VL: DIVLTQSPAIMSTSPGEKVTLTCSASSSITSSYLYWYQQKPGSSPKLWIYSTSNLASGVPARFSGSGSGTSYYLTISSMEAEDAASYFCHQWSSYPPTFGGGTKLELK | 2.91 | 48000 | – | 215 | 6.81 | 18.2 | 2.39 | – | – | – | – | – | – | – | – | – | 4.14 | – |
| 43-D12-F3-G11 (antibody, V domains shown, mouse monoclonal hybridoma antibody) VH: EVQVVESGPGLVAPSQSLSITCTVSGFSLTSYGVSWVRQPPGKGLEWLGVIWADGSTNYHSALLSRLSISKDNSKSQVFLKLNSLQTDDTATYYCAKGHWDGFAYWGQGTLVAVSA VL: DIVLTQSPAIMSTSPGEKVTLTCSASSSITSSYLYWYQQKPGSSPKLWIYSTSNLASGVPARFSGSGSGTSYYLTISSMEAEDAASYFCHQWSSYPPTFGGGTKLELK | – | – | – | – | – | – | – | 20 | 172 | 727 | 21.2 | 22.2 | 20.2 | 17.9 | 22.6 | 30.4 | – | – |
| 25-E7-A10-H6 (antibody, V domains shown, mouse monoclonal hybridoma antibody) VH: EVQLVESGGGLVQPGGSRKLSCAASGFTFSTFGMHWVRQAPEKGLEWVAYISSGSSTIYYADTVKGRFTISRDNPKNTLFLQMTSLRSEDTAMYYCARSTGTGAMDYWGQGTSVTVSS VL: DIQMTQTTSSLSASLGDRVTISCRASQDISKYLNWYQQKPDGTVKLLIYYTSRLHSGVPSRFSGSGSGTDYSLTISNLEQEDIATYFCQQGNTLPWTFGGGTKLEIK | – | – | – | – | – | – | – | 21 | 19.9 | 759 | 19.9 | 23.1 | 20.1 | 16.3 | 22.5 | 33.2 | – | 23.1 |
| 2-H1-D7-E5-D5 (antibody, V domains shown, mouse monoclonal hybridoma antibody) VH: EVHLVESGGGLVQPGGSRKLSCAASGFTFSSFGMHWVRQPPEKGLEWVAYISSGSSSIYYADTVKGRFTISRDNPKNTLFLQMTSLRSEDTAMYYCARGTGTGAMDYWGQGTSVTVSS VL: DIQMTQTTSSLSASLGDRVTISCRTSQDISNYLNWYQQKPDGTVKLLIYYTSKLHSGVPSRFSGSGSGTDYSLTISNLDQEDIATYFCQQGNTLPWTFGGGTKLEIK | – | – | – | – | – | – | – | 20 | 24.7 | 915 | 23.7 | 21.9 | 20 | 22.6 | 25.2 | 31.5 | – | 23 |
| 27-F11-E10-G10 (antibody, V domains shown, mouse monoclonal hybridoma antibody) VH: EVQLVESGGGLVQPGGSRKLSCAASGFTFSSFGMHWVRQAPEKGLEWVAYISSGSSTIYYADTVKGRFSISRDNPKNTLFLQMTSLRSEDTAMFYCARSTGTGAMDYWGQGTSVTVSS VL: DIQMTQTTSSLSASLGDRVTISCRASQDISNYLNWYQQKPDGTVKLLIYYTSRLHSGVPSRFSGSGSGTDYSLTISNLEQEDIATYFCQQGNTLPWTFGGGTKLELK | – | – | – | – | – | – | – | 17.3 | – | 512 | 19.7 | 22.1 | 19.1 | 19.5 | 21.1 | 27.7 | – | 24.9 |
| 27-G5-E9-B8 (antibody, V domains shown, mouse monoclonal hybridoma antibody) VH: EVQLVESGGGLVQPGGSRKLSCAASGFTFSSFGMHWVRQAPEKGLEWVAYISSGSSTIYYADTVKGRFTISRDNPKNTLFLQMTSLRSEDTAMYYCARSTGTGAMDYWGQGTSVTVSS VL: DIQMTQTTSSLSASLGDSVTFSCRASQDISNYLNWYQQKPDGTVKLLISYTSRLHSGVPSRFSGSGSGTDYSLTISNLEQEDIATYFCQQGNALPWTFGGGTKLEIK | – | – | – | – | – | – | – | 17.7 | 19.1 | 213 | – | 24 | 19.5 | 18.7 | 20.2 | 25.4 | – | 23.7 |
| 10-H9-E3-G3 (antibody, V domains shown, mouse monoclonal hybridoma antibody) VH: EVQRVESGGGLVQPGGSRKLSCAASGFTFSSFGMHWVRQAPEKGLEWVAYISSGSSAMYYADTVKGRFTISRDNPKNTLFLQMTSLRSEDTAMYYCARSDGKGAMDYWGQGTSVTVSS VL: DIQMTQTTSSLSASLGDRVTISCRASQDISNYLNWYQQKPDGTVKLLVYYTSRLHSGVPSRFSGSGSGTDYSLTISNLEQEDIATYFCQQGNTLPWTFGGGTKLEIK | – | – | – | – | – | – | – | 19.9 | 25 | 210 | 20.7 | 21.6 | 18.3 | 21.8 | 21 | 29.5 | – | 22.7 |
| 26-H9-B9-B7 (antibody, V domains shown, mouse monoclonal hybridoma antibody) VH: EVQRVESGGGLVQPGGSRKLSCAASGFTFSSFGMHWVRQAPEKGLEWVAYISSGSSTIYYADTVKGRFTISRDNPKNTLFLQMTSLRSEDTAMYYCARSDGKGAMDYWGQGTSVTVSS VL: DIVMTQSTSSLSASLGDRVTISCRASQDISNYLNWYQQKPDGTVKLLIYYTSRLHSGVPSRFSGSGSGTDYSLTISNLEQEDIATYFCQQGNTLPWTFGGGTKLEIK | – | – | – | – | – | – | – | 17.9 | 19.6 | 441 | 19.4 | 21.3 | 19.1 | 19.6 | 20.8 | 28.8 | – | 23.6 |
